Source: US20230203146A1 (Boehringer Ingelheim, published 2023)

T1: FLAG-tagged recombinant human Ang1 (Alexis Biochemicals) (human, UniProt Q15389 20-498, limits assumed)
T1 construct: Bought reagent; also called hAng1; FLAG-hAng1
T1 sequence (looked up): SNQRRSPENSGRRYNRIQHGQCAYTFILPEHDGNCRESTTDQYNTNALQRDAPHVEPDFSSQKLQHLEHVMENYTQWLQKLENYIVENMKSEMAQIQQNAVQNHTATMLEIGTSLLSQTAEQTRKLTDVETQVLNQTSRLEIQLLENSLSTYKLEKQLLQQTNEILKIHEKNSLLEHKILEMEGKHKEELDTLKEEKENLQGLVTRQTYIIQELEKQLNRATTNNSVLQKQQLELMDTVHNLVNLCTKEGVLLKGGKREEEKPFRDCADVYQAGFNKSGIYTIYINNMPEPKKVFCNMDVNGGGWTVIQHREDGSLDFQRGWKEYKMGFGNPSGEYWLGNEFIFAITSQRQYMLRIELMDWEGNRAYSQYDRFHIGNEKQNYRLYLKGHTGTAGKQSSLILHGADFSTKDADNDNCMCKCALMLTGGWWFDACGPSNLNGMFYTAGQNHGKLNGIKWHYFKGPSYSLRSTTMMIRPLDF

T2: N-terminally FLAG-tagged mouse Ang2 (HEK293T conditioned medium) (mouse, UniProt O35608 19-496)
T2 construct: may be a nucleotide entry; also called mAng2; FLAG-mAng2
T2 sequence: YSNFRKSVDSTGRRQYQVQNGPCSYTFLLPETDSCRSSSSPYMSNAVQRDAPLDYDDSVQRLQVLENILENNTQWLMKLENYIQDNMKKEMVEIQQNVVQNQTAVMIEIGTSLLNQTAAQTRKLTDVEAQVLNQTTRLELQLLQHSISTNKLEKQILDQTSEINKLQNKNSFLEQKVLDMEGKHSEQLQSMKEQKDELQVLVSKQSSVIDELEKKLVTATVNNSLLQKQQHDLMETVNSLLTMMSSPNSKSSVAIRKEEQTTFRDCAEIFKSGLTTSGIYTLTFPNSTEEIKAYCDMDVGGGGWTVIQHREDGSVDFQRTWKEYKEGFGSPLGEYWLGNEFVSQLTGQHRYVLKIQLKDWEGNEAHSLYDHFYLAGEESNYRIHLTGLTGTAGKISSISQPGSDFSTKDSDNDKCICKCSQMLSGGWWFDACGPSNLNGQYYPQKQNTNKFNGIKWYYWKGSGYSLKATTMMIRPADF

T3: N-terminally FLAG-tagged cynomolgus Ang2 (HEK293T conditioned medium) (cynomolgus, UniProt O15123 19-496 (human entry), limits assumed)
T3 construct: may be a nucleotide entry; also called cAng2; FLAG-cAng2
T3 chain: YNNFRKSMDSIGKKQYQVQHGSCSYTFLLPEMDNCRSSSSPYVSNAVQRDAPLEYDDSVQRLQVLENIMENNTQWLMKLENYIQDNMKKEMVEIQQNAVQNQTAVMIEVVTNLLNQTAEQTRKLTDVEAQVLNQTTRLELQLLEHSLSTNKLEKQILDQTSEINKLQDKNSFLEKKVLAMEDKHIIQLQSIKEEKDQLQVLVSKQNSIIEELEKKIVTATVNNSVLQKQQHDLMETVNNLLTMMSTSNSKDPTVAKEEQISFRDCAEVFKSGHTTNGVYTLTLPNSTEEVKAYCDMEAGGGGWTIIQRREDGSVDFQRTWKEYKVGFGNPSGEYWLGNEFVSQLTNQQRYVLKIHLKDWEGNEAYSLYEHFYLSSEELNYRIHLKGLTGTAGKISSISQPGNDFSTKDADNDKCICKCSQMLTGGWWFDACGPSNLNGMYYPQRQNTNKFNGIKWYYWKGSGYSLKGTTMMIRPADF

T4: recombinant mouse Ang2-FLD (mouse, UniProt O35608 275-496, limits assumed)
T4 construct: domain: FLD
T4 sequence (looked up): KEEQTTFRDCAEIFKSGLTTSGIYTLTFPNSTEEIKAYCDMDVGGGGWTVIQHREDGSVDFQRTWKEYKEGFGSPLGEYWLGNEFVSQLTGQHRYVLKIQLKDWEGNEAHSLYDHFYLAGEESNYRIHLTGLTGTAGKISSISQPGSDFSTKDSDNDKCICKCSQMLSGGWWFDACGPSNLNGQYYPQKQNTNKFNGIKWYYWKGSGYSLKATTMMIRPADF

T5: recombinant human Ang2-FLD (human, UniProt O15123 275-496, limits assumed)
T5 construct: domain: FLD; not used
T5 sequence (looked up): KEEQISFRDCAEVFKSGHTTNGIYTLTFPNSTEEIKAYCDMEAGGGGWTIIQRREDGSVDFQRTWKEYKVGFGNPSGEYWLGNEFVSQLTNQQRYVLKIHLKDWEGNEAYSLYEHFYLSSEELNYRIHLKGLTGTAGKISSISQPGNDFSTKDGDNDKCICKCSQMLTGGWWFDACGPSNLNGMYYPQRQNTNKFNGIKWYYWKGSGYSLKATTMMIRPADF


How the values were obtained:
[1] = target: T1, FLAG-tagged recombinant human Ang1 …; test: competition ELISA, periplasmic extract, FLAG-hAng1 on hTie2/Fc
Protocol: (§1) In brief, human Tie2/Fc chimera (R&D Systems, Minneapolis, Minn., USA) is biotinylated using N-hydroxysulfosuccinimide ester of biotin (Thermo Fisher Scientific, Rockford, Ill., USA). […] To this mixture, the Acceptor beads and 0.3 nM biotinylated human Tie2/Fc chimeras are added and further incubated for 2 hours at room temperature. Finally, streptavidin conjugated Donor beads (Perkin Elmer, Waltham, Mass., US) are added and the mixture is incubated for an additional 2 hours at room temperature. Assay buffer is PBS+0.03% Tween-20+0.1% BSA. Fluorescence is measured using the Envision Multilabel Plate reader (Perkin Elmer, Waltham, Mass., USA) using an excitation wavelength of 680 nm and an emission wavelength of 520 nm. […] In brief, human or mouse Tie2/Fc chimera (R&D Systems, Minneapolis, Minn., USA) are immobilized at 2 μg/mL overnight at 4° C. in a 96-well MaxiSorp plate (Nunc, Wiesbaden, Germany). Wells are blocked with a 1% casein solution. […] This mixture is added to the Tie2/Fc coated well and incubated for 2 hours at room temperature. Residual binding of Ang is detected using HRP-conjugated anti-FLAG M2 antibody (Sigma, St Louis, Mo., USA).

[2] = target: T1, FLAG-tagged recombinant human Ang1 …; test: ratio of IC50 in hAng1/hTie2 ELISA to IC50 in hAng2/hTie2 ELISA
Protocol: In brief, 2 μg/mL of Tie2/Fc chimera (R&D Systems, Minneapolis, Minn., USA) is coated in a 96-well MaxiSorp plate (Nunc, Wiesbaden, Germany).
In brief, 2 μg/mL of recombinant human Tie2-Fc (R&D Systems, Minneapolis, Minn., USA) is coated overnight at 4° C. in a 96-well MaxiSorp plate (Nunc, Wiesbaden, Germany). Coated wells are blocked with a 1% casein solution.

[3] = target: T2, N-terminally FLAG-tagged mouse Ang2 …; test: competition ELISA, FLAG-mAng2 on coated mTie2-Fc
Protocol: (§2) In brief, 2 μg/mL of recombinant mouse Tie2-Fc or cyno Tie2-Fc is coated overnight at 4° C. in a 96-well MaxiSorp plate (Nunc, Wiesbaden, Germany). Coated wells are blocked with a 1% casein solution.

[4] = target: T3, N-terminally FLAG-tagged cynomolgus …; test: competition ELISA, FLAG-cAng2 on coated cTie2-Fc
Protocol: as §2

[5] = target: T2, N-terminally FLAG-tagged mouse Ang2 …; test: competition ELISA, periplasmic extract, FLAG-mAng2 on mTie2/Fc
Protocol: as §1

[6] = target: T4, recombinant mouse Ang2-FLD; test: SPR (Biacore T100), binder on CM5 chip, Ang2-FLD as analyte
Protocol: (§3) In brief, VHH and benchmark compounds are immobilized on a CM5 chip via amine coupling. […] Ang2-FLD species are allowed to associate for 2 min and to dissociate for 20 min at a flow rate of 45 μL/min. In between injections, the surfaces are regenerated with a 10 sec pulse of 25 mM NaOH and 60 sec stabilization period. Association/dissociation data are evaluated by fitting a 1:1 interaction model (Langmuir binding). The affinity constant KD is calculated from resulting association and dissociation rate constants kₐ and kd and are depicted in Table 8.

[7] = target: T5, recombinant human Ang2-FLD; test: as above
Protocol: as §3

[8] = target: T6, recombinant cynomolgus Ang2-FLD (cynomolgus); test: as above
T6 construct: domain: FLD; also called cyno Ang2-FLD
Protocol: as §3

% inh [1] [%] | hAng1/hAng2 ratio [2] | IC50 [3] [nM] | IC50 [4] [nM] | % inh [5] [%] | Kd [6] [nM] | koff [6] [s⁻¹] | kon [6] [M⁻¹ s⁻¹] | Kd [7] [nM] | koff [7] [s⁻¹] | kon [7] [M⁻¹ s⁻¹] | Kd [8] [nM] | koff [8] [s⁻¹] | kon [8] [M⁻¹ s⁻¹] | Binder
3 |  |  |  |  |  |  |  |  |  |  |  |  |  | VHH 12A08 (VHH, Tested as periplasmic extract; also called 012A08; not shown: C-terminal c-myc tag and His6 tag) VHH: EVQLVESGRGLVQAGGSLRLSCAASGSIFSINAMLWYRQAPGKQRELVAAITSGGSTNYADSVKGRFTISRDNAKNTVYLQMNSLKPEDTAVYYCAADSDYSSDYYYWGQGTQVTVSS
4 |  |  |  |  |  |  |  |  |  |  |  |  |  | VHH 25B01 (VHH, Tested as periplasmic extract; also called 025B01; not shown: C-terminal c-myc tag and His6 tag) VHH: EVQLVESGGGLVQAGGSLRLSCAASGFTFDDYAIGWFRQAPGKEREGVSCISSSDGSTYYADSVKGRFTISSDNAKNTVYLQMNSLKPEDTAVYYCAAAWGASRLPIGTMPPYEYDYWGQGTQVTVSS
4 | > 3080 | 6.1 | 2 | 93 | 5.6 | 0.011 | 1.9e+06 | 1.3 | 0.0062 | 4.9e+06 | 1.4 | 0.025 | 1.8e+07 | VHH 28D10 (VHH, also called 028D10; not shown: C-terminal c-myc tag and His6 tag) VHH: EVQLVESGGGLVQAGGSLRLSCAASGFTLDDYAIGWFRQAPGKEREGVSCIRDSDGSTYYADSVKGRFTISSDNDKNTVYLQMNSLKPEDTAVYYCAAVPAGRLRFGEQWYPLYEYDAWGQGTQVTVSS
